Assays:
[1] = Serum cytokine response in tumor-bearing mice
Experimental: (§1) Immunoblotting was performed with anti-PKCα, anti-ATP5A1, anti-SIRT3 or anti-actin. […] (B) The schematic diagram of a xenograft model treated with rVector (upper). HCT116-expressing ATP5A1 WT and mutant cells were subcutaneously injected into the flank of nude mice. […] Each group included 10 mice. […] (C) Humoral immune responses in BALB/C mice. The mice were immunized via each route (intravenous injection or intraperitoneal injection) every third day, and subjected to blood collection on day 40. […] The values are expressed as mean±standard deviation for absorbance (OD) at 450 nm. Each group included five mice. (D) Cytokine response for rATRAM-GRA8-M/AS in tumor-bearing mice. As described in the method section, HCT116 cells were subcutaneously injected into the flank of a BALB/c mouse. A serum cytokine level was measured on day 30 after administration. Each group included 10 mice.
(§2) Since immunogenicity is closely related with safety and efficacy, it is one of the critical factors for development of therapeutic proteins. Therefore, by monitoring the production of antibodies against rATRAM-GRA8-M/AS in immunized mice, the immunogenicity of rATRAM-GRA8-M/AS was investigated. After three consecutive injections of rATRAM-GRA8-M/AS, a level of IgG antibody was analyzed using enzyme-linked immunosorbent assay (ELISA).

BMDM = assay: MTT assay of cell viability, bone marrow-derived macrophages (BMDM); assay type: cell-based, mouse; details: 20 μg/ml
Experimental: FIGS. 2A, 2B, 2C, 2D and 2E show the design and expression of an ATRAM-conjugated multifunctional GRA8 peptide (rATRAM-G8-M/AS)-based protein [(A) Subcellular fractionation of 293T cells was performed by expression of GST-GRA8 WT or incubation of WT rGRA8 with (1 μg/ml) BMDM and treatment with several Tat-GRA8 peptides for 6 hours (10 μM). Mitochondrial and cytosolic fractions were fractionated and analyzed for expression of GST by IB. The purity of the fractions was confirmed by blotting for VDAC (mitochondrial protein) and actin (cytosolic protein). (B) A mammalian GST-GRA8 construct was transfected into 293T cells for 12 hours with V5-ATP5A1 or Flag-SIRT3, and treated with several Tat-GRA8 peptides (10 μM) for 6 hours. The 293T cells were used for GST pulldown, followed by IB with αV5 or αFlag. WCL was used for IB with αGST, αV5, αFlag or αActin. […] (D) 6×His-rATRAM-GRA8-M/AS purified with bacteria and its mutants were analyzed by Coomassie blue staining (left) or αHis immunoblotting (IB; right). (E) BMDM was incubated with rATRAM-GRA8-M/AS and its mutant (20 μg/ml) for indicated times, and cell viability was then measured by an MMT assay. […]
As described in Non-Patent Document 1, the cell viability for a non-treated group was measured by an MTT assay. […] Using a UV/VIS spectrophotometer, each well of a plate was measured at 540 nm to measure relative cell viability.

HCT116 cells = assay: Mitochondrial DNA quantification by real-time PCR; assay type: cell-based, human; details: 1 day, via SIRT3 and PKCα
Experimental: FIGS. 4A, 4B, 4C, 4D and 4E show HCT116 cell death by rATRAM-GRA8-M/AS-induced mitochondrial activation [(A and B) HCT116 cells were incubated with WT rGRA8 or rATRAM-GRA8-M/AS and its mutants for indicated times, and then cell viability was measured with an MTT assay. […] The cells were stimulated with rATRAM-GRA8-M/AS for 1 day and subjected to enzymatic activity of OXPHOS V, and (C) MitoTracker fluorescence signals were assessed by flow cytometry. (D) A bar graph indicates a mitochondrial mass (MFI), and (E) the mtDNA content of BMDM was measured by quantitative real-time PCR. The mtDNA content was normalized by nuclear DNA. Significant differences were determined by comparison with control treatment (** P<0.01; *** P<0.001). Data represents five independent experiments with similar results].
To quantify the copy number of mitochondrial DNA (mtDNA), by the method described in Autophagy. 2014; 10:785-802: The AMPK-PPARGC1A pathway is required for antimicrobial host defense through activation of autophagy, an mtDNA to nuclear DNA (nDNA) ratio was measured. Pyruvate kinase (Pklr) was used as a marker for nDNA and NADH dehydrogenase subunit 1 (mt-Nd1) was used as a marker for mtDNA. A real-time PCR reaction was performed according to the manufacturer's instructions (QuantiFast SYBR green PCR master mix; Qiagen, 204052), and temperature cycling was performed in QuantStudio™ 3 (ABI). […]

[2] = Immunogenicity: specific IgG by ELISA in immunized mice; details: immunized BALB/C mice, OD 450 nm
Experimental: as §1, §2

[3] = BALB/c mice, versus negative control

B1: (GLAGLAGLLGLEGLLGLPLGLLEGLWLGLELEGN)2-GG-ATATTTTTTR-GG-YRFTVQTTQN (protein)
chain: GLAGLAGLLGLEGLLGLPLGLLEGLWLGLELEGNGLAGLAGLLGLEGLLGLPLGLLEGLWLGLELEGNGGATATTTTTTRGGYRFTVQTTQN
modifications: His tag; rATRAM-G8-M/AS
For B1, the “serum IL-1β level” value [1, 3] was “almost similar to that of the negative control”, the “serum IL-6 level” value [1, 3] was “almost similar to that of the negative control” and the “serum TNF-α level” value [1, 3] was “almost similar to that of the negative control”. The “production of inflammatory cytokines” value ([1]; tumor-bearing mice, serum, day 30) was “negligible”, the “cytotoxicity in macrophages compared with vector control” value (BMDM) was “No significant cytotoxic differences” and the “mitochondrial DNA content” value (HCT116 cells) was “enhanced”. The “level of specific IgG antibody” value [2] was “negligible”.
